Key:
[1] = target: T1, full-length untagged human GPNMB expressed on cells (human, UniProt Q14956 23-572); test: cell-based or functional assay
T1 sequence: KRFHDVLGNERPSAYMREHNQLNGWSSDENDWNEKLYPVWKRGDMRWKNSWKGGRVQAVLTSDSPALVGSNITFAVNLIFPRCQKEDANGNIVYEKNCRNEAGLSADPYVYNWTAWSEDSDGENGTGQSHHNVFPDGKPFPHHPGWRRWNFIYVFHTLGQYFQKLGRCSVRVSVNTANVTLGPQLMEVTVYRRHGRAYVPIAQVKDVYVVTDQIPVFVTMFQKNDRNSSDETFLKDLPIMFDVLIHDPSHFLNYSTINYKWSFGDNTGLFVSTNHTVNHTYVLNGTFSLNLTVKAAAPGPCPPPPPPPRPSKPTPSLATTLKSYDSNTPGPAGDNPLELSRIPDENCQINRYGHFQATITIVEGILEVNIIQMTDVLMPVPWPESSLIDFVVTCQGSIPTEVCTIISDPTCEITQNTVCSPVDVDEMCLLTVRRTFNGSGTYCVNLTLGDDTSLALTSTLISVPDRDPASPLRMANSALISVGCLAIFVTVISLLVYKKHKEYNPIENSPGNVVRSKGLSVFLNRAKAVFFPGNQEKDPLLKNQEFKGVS

[2] = target: T2, mouse GPNMB endogenously expressed on B16F10 cells (mouse, UniProt Q99P91 23-574); test: FACS on B16F10 mouse melanoma cells (endogenous mouse GPNMB); single antibody concentration (not given); APC anti-human IgG secondary; MFI as fold over background
T2 construct: whole, on cells; also called moGPNMB
T2 sequence (looked up): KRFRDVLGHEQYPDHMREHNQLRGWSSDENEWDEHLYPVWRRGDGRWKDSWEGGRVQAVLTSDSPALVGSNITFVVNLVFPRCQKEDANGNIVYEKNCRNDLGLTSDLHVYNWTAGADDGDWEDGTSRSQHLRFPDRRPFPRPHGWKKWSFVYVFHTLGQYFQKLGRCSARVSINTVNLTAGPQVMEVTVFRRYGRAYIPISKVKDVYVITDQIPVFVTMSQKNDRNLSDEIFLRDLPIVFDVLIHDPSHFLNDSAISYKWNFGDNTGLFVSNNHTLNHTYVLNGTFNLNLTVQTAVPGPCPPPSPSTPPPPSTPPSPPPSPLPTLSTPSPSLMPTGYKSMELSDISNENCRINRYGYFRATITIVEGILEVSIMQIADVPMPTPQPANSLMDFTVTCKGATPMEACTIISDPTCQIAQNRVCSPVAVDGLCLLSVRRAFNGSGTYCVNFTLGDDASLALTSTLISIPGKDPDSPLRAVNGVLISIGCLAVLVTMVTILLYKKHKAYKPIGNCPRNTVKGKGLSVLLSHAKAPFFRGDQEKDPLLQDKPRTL
Experimental: Recombinant anti-GPNMB antibodies of the present disclosure were examined for their ability to bind human and/or mouse GPNMB expressed on Freestyle293-huGPNMB+ or B16F10 cells, respectively. B16F10 cells are a murine melanoma cell line from a C57BL/6J mouse that endogenously express high levels of mouse GPNMB. The antibodies were also tested for their ability to bind to a human macrophage cell line (U937 cells) engineered to express human GPNMB. Cells were harvested, plated at 100,000 cells/well in a 96-well round bottom plate, and incubated in 100 μl FACS buffer (PBS containing 2% FBS, 2 mM EDTA) containing anti-GPNMB monoclonal antibodies of the present disclosure for 30 minutes on ice. Cells were then washed and incubated in 100 ul FACS buffer containing 1 μg/ml APC-conjugated anti-human IgG secondary antibody for 30 minutes in ice. Cells were washed twice in cold FACS buffer and acquired on a BD FACS Canto. Data analysis and calculation of MFI values was performed with FlowJo (TreeStar) software version 10.0.7. […]

[3] = target: T1, full-length untagged human GPNMB …; test: FACS titration, FS293-huGPNMB+ cells
Experimental: Cell-based binding measurements were also performed to measure the apparent affinities of anti-GPNMB antibodies of the present disclosure to cell-surface expressed GPNMB. Serial dilutions of the monoclonal anti-GPNMB antibodies were added to 100,000 Freestyle293-huGPNMB+ or B16F10 cells and allowed to achieve binding equilibrium at 4° C. After addition of fluorescently labeled secondary antibody and brief washing steps, MFI values as a function of titrated antibody concentration was recorded via FACS analysis. Curves were fit using nonlinear regression analysis with Graphpad Prism 6 software.

[4] = target: T1, full-length untagged human GPNMB …; test: FACS, FS293-huGPNMB+ cells
Experimental: Recombinant anti-GPNMB antibodies of the present disclosure were examined for their ability to bind human and/or mouse GPNMB expressed on Freestyle293-huGPNMB+ or B16F10 cells, respectively. B16F10 cells are a murine melanoma cell line from a C57BL/6J mouse that endogenously express high levels of mouse GPNMB. The antibodies were also tested for their ability to bind to a human macrophage cell line (U937 cells) engineered to express human GPNMB. Cells were harvested, plated at 100,000 cells/well in a 96-well round bottom plate, and incubated in 100 μl FACS buffer (PBS containing 2% FBS, 2 mM EDTA) containing anti-GPNMB monoclonal antibodies of the present disclosure for 30 minutes on ice. Cells were then washed and incubated in 100 ul FACS buffer containing 1 μg/ml APC-conjugated anti-human IgG secondary antibody for 30 minutes in ice. Cells were washed twice in cold FACS buffer and acquired on a BD FACS Canto. Data analysis and calculation of MFI values was performed with FlowJo (TreeStar) software version 10.0.7.
Importantly, several anti-GPNMB antibodies of the present disclosure also bound to the human macrophage cell line U937 cells engineered to express human GPNMB (U937/huGPNMB+) (FIG. 2C). In FIG. 2C, the first data point in each pair corresponds to U937/huGPNMB+ cells, and the second data point in each pair corresponds to U937/huGPNMB− cells. No anti-GPNMB antibodies bound to U937 cells deficient in human GPNMB expression (U937/huGPNMB−).

Binder	CD40 (FoB) [1]	CD80 (FoB) [1]	GCase (FoB) [1]	PDL1 (FoB) [1]	binding result [2]	EC50 [3]	MFI fold over background [4]
anti-GPNMB antibody GPN-52 (antibody, human IgG1, V domains shown, chimeric) VH: DVQLQESGPGLVKPSQTVFLTCTVTGISITTGNYRWSWIRQFPGNKLEWIGYIYYSGTITYNPSLTSRITITRDTPKNEFFLEMNSLTAEDTATYYCARDLTHWYFDVWGTGTTVTVSS VL: not shown	1.53 FoB	1.46 FoB		1.44 FoB		1.27 nM	7.6 fold
anti-GPNMB antibody GPN-43 (antibody, human IgG1, V domains shown, chimeric) VH: EVQLQQSGPELVKPGASVKISCKASGYTFTDYYMNWVRQSHGKSLEWIGDINPYHGGSTYNQKIKVKATLTVDKSSSTAYMELRSLTSEDSAVYYCARNWPYFDYWGQGTTLTVSS VL: DIQMTQSPASLSASVGETVTITCRASENIYSFLVWYQQKQGKSPQLLVYNAKTLAEGVPSRFSGSGSGTQFSLKISSLQPEDFGSYYCQHHFGTPPYTFGGGTKLEIK	1.06 FoB	1.08 FoB	1.01 FoB	1.05 FoB			
anti-GPNMB antibody GPN-48 (antibody, human IgG1, V domains shown, chimeric) VH: QVQLQQSGPELVKPGASVKLSCRASGYGFSSFWMNWVKQRPGKGLEWIGRIYPGKGDTLYNGKFKDKATLTADESSSTAYMQLSSLTSEDSAVYFCARSIYYYDYWYFDVWDTGTTVTVSS VL: DIVMTQSHKFMSTSVGDRVNITCKASQDVNSAIAWYQQKPGQSPKLLIYSASYRFIGVPDRFTGSGSGTGFTFTISSVQAEDLAVYYCQQHYTTPLTFGAGTKLELK	1.06 FoB	1.06 FoB	1.02 FoB	1.14 FoB		18.8 nM	9.7 fold
anti-GPNMB antibody GPN-41 (antibody, human IgG1, V domains shown, chimeric) VH: QLQLQQSGTEVVKPGASVKIPCKASGYAFSSYWMNWVKQRPGKGLEWIGQIYPGDGDTNDNGKFEGKATLTVDKSSNTAYIQLSSLTSEDSAVYFCARSPLHLRGSMDYWGQGTSVTVSS VL: SIVMTQTPKFLLVSAGDRVTITCKASQSVSNDVAWFQQKPGQSPELLIYSASNRYTGVPDRFTASGYGTDFTFTISAVQAEDLAVYFCQQNYYSPFTFGGGTRLEIK						3.88 nM	23.6 fold

The remaining binders from weak to strong by EC50 [3], led by results:

CD40 (FoB) [1]	CD80 (FoB) [1]	GCase (FoB) [1]	PDL1 (FoB) [1]	binding result [2]	EC50 [3]	MFI fold over background [4]	Binder
1.61 FoB	1.5 FoB	1.46 FoB	1.52 FoB		7.25 nM	18.6 fold	anti-GPNMB antibody GPN-61 (antibody, human IgG1, V domains shown, chimeric) VH: DVQLQESGPGLVKPSQTVFLTCTVTGISITTGNYRWSWIRQFPGNKLEWIGYIYYSGTITYNPSLTSRTTITRDTPKNQFFLEMSSLTAEDTATYFCARDLRHWYFDVWGTGTTVTVSS VL: not shown
					2.6 nM	8.1 fold	anti-GPNMB antibody GPN-65 (antibody, human IgG1, V domains shown, chimeric) VH: QLQLQQSGTEVVKPGASVKIPCKASGYAFSSYWMNWVKQRPGKGLEWIGQIYPGDGDTNDNGKFEGKATLTVDKSSNTAYIQLSSLTSEDSAVYFCARSPLHLRGSMDYWGQGTSVTVSS VL: SIVMTQTPKFLLVSAGDRVTITCKASQSVSNDVAWFQQKPGQSPELLIYSASNRYTGVPDRFTGSGYGTDFTFTISTVQAEDLAVYFCQQNYYSPFTFGGGTRLEIK
1.31 FoB	1.22 FoB	0.9 FoB	1.3 FoB		1.33 nM	104 fold	anti-GPNMB antibody GPN-35 (antibody, human IgG1, V domains shown, chimeric) VH: EVQLVESGGGSVRPGRSLKLSCAAAGFTFSDYYMTWVRQAPTKGLEWVASINHDGGGTYYRDSVKGRFTISRDNARSSLYLQMDSLRSEDTGTYYCTTRAGWHWGQGVMVTVSS VL: DIQMTQSPASLSASLGETVSIECLASEDIYNYLTWYQQKPGKSPQVLIYSASGLQDGVPSRFSGSGSGRQYSLKINGLESEDAATYFCLQDSEYPLTFGSGTKLEIK
1.01 FoB	1.03 FoB		1.03 FoB		0.99 nM	20.7 fold	anti-GPNMB antibody GPN-38 (antibody, human IgG1, V domains shown, chimeric) VH: QVQLQQPGAELVRPGTSVRLSCKASGYTFTSYWIHWVKQRPGRGLEWIGVIDPSDSYTNYNQQFNVKATLTVDTSSSAAYMQLSSLTSEDSAVYYCARGLITAVNWYFDVWGTGTTVTVSS VL: DIQMTQSPASLSTSVGEIVTITCRASENIYSYLTWYQQKQGKSPQLLVYNAKTLAEGVPSRFSGSGSGTQFSLKINSLQPEDFGTYYCQHHYGTPLTFGSGTKLEIK
1.56 FoB	1.2 FoB	1.22 FoB	1.48 FoB	no binding	0.22 nM	59.9 fold	anti-GPNMB antibody GPN-24 (antibody, human IgG1, V domains shown, chimeric) VH: QVQLQQPGAELVKPGASVKMSCKASGYTFTSYWITWVKQRPGQGLEWIGDIHPGSGRSNYNEKFKNKATLNVDTSSSTVYMQLSSLTSEDSAVYYCARDYLFAYWGQGTLVTVSA VL: DIQMTQSPSSLSASLGERVSLTCRASQEISGYLSWLQQKPDGTIKRLIYSTSTLDSGVPKRFSGSRSGSDYSLTISSLESEDFADYYCLQYTSSPPTFGGGTKLEIK
1.74 FoB	1.36 FoB	1.05 FoB	1.7 FoB	no binding	0.17 nM	43.2 fold	anti-GPNMB antibody GPN-01 (antibody, human IgG1, V domains shown, chimeric) VH: QVQLQQSGAELAKPGASVKLSCKASGYNFTNYCIHWVKQRPGQGLEWIGYINPSTGYTEYNQKFKDKATLTADKSSTTAYMQLSSLTSEDSAVYYCARGRYDEFTYWGQGTLVTVSA VL: DIVLTQSPASLAVSLGQRATISCRASKSVSTSTYSYMHWYQQKPGQPPKLLIYLASNLESGVPARFSGSGSGTDFTLNIHPVEEEDAATYYCQHSRELPPTFGGGTKLEIK

From patent publication US20250270343A1 (Alector, published 2025)
